For this test, the target named is recombinant TSWV-N protein (tomato spotted wilt virus nucleocapsid N protein) (Tomato spotted wilt virus (TSWV)). In words: cross-linking.

As a reminder, the stoichiometry N is the number of molecules, sites or subunits per partner or assembly.

Where “and” joins values, the source holds several entries; their conditions need not be identical. Equal entries are not always repeated.

As to “recombinant TSWV-N protein (tomato spotted wilt virus nucleocapsid N protein) (natural protein)”, the stoichiometry N was 2 and 3.

Values taken from article PMC12197737.
